The subject of the data set is MS2 coat protein. Description: apparent KD of MS2 coat protein; higher = weaker reporter binding. To be noted: Eterna round: R107. The gist of the method:
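Titrations with SNAP-549-labelled MS2 coat protein ran in twofold steps from 0.7 or 1.5 nM to 3 µM, each step taking 0.8–1.5 h at the start and 10–20 min toward the end. The targets were designed RNA switches transcribed on-chip from Illumina sequencing clusters, held in 100 mM Tris-HCl pH 7.5, 80 mM KCl, 4 mM MgCl2, without or with constant ligand. Apparent KD was taken per design as the median of normalised cluster binding-curve fits.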

Where [1] appears, read: input ligand: theophylline 20 uM.
Setting [2] is: input ligand: tryptophan 2.4 mM.
The mark [3] stands for this setting: input ligand: theophylline 2 mM.

For “GGCUAGUGCAUCGAUACCAGCUACAUGAGGAUCACCCAUGUAGGAAGGGUGGUACUCGAUAGCCCUUGGCAGCGAACACCUCCGG [Quoran]”, the “apparent KD of MS2 coat protein” value (input ligand: arginine 13.2 mM) amounted to 18.7 nM, the “apparent KD of MS2 coat protein” value under setting [1] turned out to be 35.7 nM and the “apparent KD of MS2 coat protein” value under setting [2] came out at 18.8 nM.

On to “GGGAGGGAGGCGGCCGCCACUGAUUUUCAUAUAUAUAUAACAUGAGGAUCACCCAUGUAGAUAUGCAGGACCGGGCCUUUUUUUU [aaaI]”, for which the “apparent KD of MS2 coat protein” value is, setting by setting: (input ligand: arginine 13.2 mM) 21.3 nM; under setting [1], 30.1 nM; under setting [3], 19.1 nM.

“GGGAUAUAGGCGGCCGCCACUGAUUUUCAUAUAUAUAUAACAUGAGGAUCACCCAUGUAGAUAUACAGGACCGGGCCUAUAUUUU [aaaD]”: the “apparent KD of MS2 coat protein” value was 14.8 nM (input ligand: arginine 13.2 mM); 15.2 nM (input ligand: none); 17.4 nM under setting [1]; 21.1 nM under setting [3]; 13.5 nM under setting [2].

On to “GGGCAAGAGGGAAGGAGCGUCAGCUGAGUCACAUGAGGAUCACCCAUGUAGCACAUAGUGUGACAGGUAGGUCGCCCUCUGCCCU [SS-ArgB5]”, for which the “apparent KD of MS2 coat protein” value is 11.1 nM (input ligand: arginine 13.2 mM); 9.19 nM (input ligand: none); 14.4 nM under setting [1]; 11.4 nM under setting [3]; 11.6 nM under setting [2].

“GGGCGCUAUCCCGCGAGGGAUAGCGUUCGACGAGGACCGGUACGGCCGCCACUCGAACGAGUGGGUACAUGAGGAUCACCCAUGU [Gaa]”: the “apparent KD of MS2 coat protein” value was found to be 26.3 nM (input ligand: arginine 13.2 mM); 33.5 nM (input ligand: none); 50.9 nM under setting [1]; 33.3 nM under setting [3]; 25.9 nM under setting [2].

As to “GGGCGCUAUCCCGCGAGGGAUAGCGUUCGGCGAGGACCGGUACGGCCGCCACUCGAACGAGUGGGUACAUGAGGAUCACCCAUGU [Faa]”, the “apparent KD of MS2 coat protein” value reads like this: (input ligand: arginine 13.2 mM) 23.1 nM; (input ligand: none) 28 nM; under setting [1], 39.6 nM; under setting [3], 36.3 nM; under setting [2], 30.6 nM.

For “GGGUACAUCGCGGCCGCCACUCAUGUAAAUGCAUGAGGAUCACCCAUGCCGAUGGAGACAUCGGAGAGGACCGGGUGAUGUACCG”, the “apparent KD of MS2 coat protein” value reads like this: (input ligand: arginine 13.2 mM) 41.8 nM; (input ligand: none) 45.8 nM; under setting [1], 68.7 nM; under setting [3], 71.1 nM; under setting [2], 33.6 nM.

Consider “GGGUCAGGCGCGGCCGCCACUGCGGUGAUGUGACAUGAGGAUCACCCAUGUUGUCAUGUGGCACAUAGGACCGGGCGCCUGGCCC [#1 Exclusion - Tryptophan B Attempt #7 (HarryS)]”, for which the “apparent KD of MS2 coat protein” value stood at 25.4 nM (input ligand: arginine 13.2 mM), 41.5 nM under setting [1] and 33.2 nM under setting [3].

Take “GGGUGGUAGGCGGCCGCCACUGAUUUUUAUUUAUAGAUGACAUGAGGAUCACCCAUGUAGAUAUGCAGGACCGGGCCUGUUGUUU [aaaO]”: the “apparent KD of MS2 coat protein” value (input ligand: arginine 13.2 mM) was found to be 16.6 nM, the “apparent KD of MS2 coat protein” value under setting [1] was 22.3 nM and the “apparent KD of MS2 coat protein” value under setting [3] was determined as 19.3 nM.

In the case of “GGUCUCUGGAGCGAUACCAGCUUAAGUGUACUGGCCAGGUACAUGAGGAUCACCCAUGUAAGCCCUUGGCAGCGCUCCAGAGACC [#1 Exclusion - Theophylline B Attempt #14 (HarryS)]”, the “apparent KD of MS2 coat protein” value by setting is: (input ligand: arginine 13.2 mM) 16.7 nM; (input ligand: none) 10.4 nM; under setting [1], 16.1 nM; under setting [3], 41.5 nM; under setting [2], 12.2 nM.

As for “GGUCUCUGGAGCGAUACCAGCUUGAGUGUACUGGCCAGGUACAUGAGGAUCACCCAUGUAAGCCCUUGGCAGCGCUCCAGAGACC [#1 Exclusion - Theophylline B Attempt #15 (HarryS)]”, the “apparent KD of MS2 coat protein” value is 9.19 nM (input ligand: arginine 13.2 mM); 9.21 nM (input ligand: none); 14 nM under setting [1]; 44.7 nM under setting [3]; 11 nM under setting [2].

As to “GGUGGCGUGACGGAUACCAGCCACCACCGAUAGACCACAUGAGGAUCACCCAUGUUGGGUGGCCCUUGGCAGCUGUCGUGCGGCG [#1 Same State - Theophylline B Attempt #17 (HarryS)]”, the “apparent KD of MS2 coat protein” value (input ligand: arginine 13.2 mM) was found to be 82 nM, the “apparent KD of MS2 coat protein” value under setting [1] stood at 409 nM and the “apparent KD of MS2 coat protein” value under setting [2] turned out to be 220 nM.

With “GGUUACUCUACGGCCGCCACUGAUUAAUUAUAAUCCUGUACAUAAACAUGAGGAUCACCCAUGUACAGGACCGGGUAGUGUAACC [Tryptophan B 10]”, the “apparent KD of MS2 coat protein” value worked out at 32.3 nM (input ligand: arginine 13.2 mM), 46.2 nM under setting [1] and 36.3 nM under setting [3].

On to “GGUUGAAACUGAAGGAGCGAGAUCACAAGAUUGGGUCUAACAUGAGGAUCACCCAUGUAAUCUCAGGUAGGUCGCAGUGACCAAA [Exclusion Arginine B GF 13]”, for which the “apparent KD of MS2 coat protein” value reads like this: (input ligand: arginine 13.2 mM) 28 nM; (input ligand: none) 38.4 nM; under setting [1], 45.1 nM; under setting [3], 51.7 nM; under setting [2], 38.1 nM.

On to “GUAAUUUUAAGAAGGAGCGUCGAAAAUGGGUAAACAUGAGGAUCACCCAUGUAAAGGGAACGACAGGUAGGUCGCUUAGGAUUAC [AstromonsSSArgB#23]”, for which the “apparent KD of MS2 coat protein” value worked out at 113 nM (input ligand: arginine 13.2 mM); 191 nM (input ligand: none); 235 nM under setting [1]; 220 nM under setting [3]; 198 nM under setting [2].

Values taken from the supplement of paper PMC9170038.
